# Patent US20230183665A1, “THERMOSTABLE GLUCOCEREBROSIDASE” (TEIKYO UNIVERSITY, priority 2020, published 2023)
# B1: RGC1: rice-derived glucocerebrosidase purified from rice stems; identical to Os3BGlu6, belongs to GH1; SEQ ID NO: 1 (protein)
# chain: MGRIKSSSGRCSTARLEAVAVLVVVFGVASSSLRGCIAQQSGGGLTRGSFPEGFVFGTASAAYQYEGAVKEDGRGQTIWDTFAHTFGKITDFSNADVAVDQYHRFEEDIQLMADMGMDAYRFSIAWSRIYPNGVGQVNQAGIDHYNKLIDALLAKGIQPYVTLYHWDLPQALEDKYKGWLDRQIVDDFAAYAETCFREFGDRVKHWITLNEPHTVAIQGYDAGLQAPGRCSVLLHLYCKAGNSGTEPYVVAHHFILAHAAAASIYRTKYKATQNGQLGIAFDVMWFEPMSNTTIDIEAAKRAQEFQLGWFADPFFFGDYPATMRARVGERLPRFTADEAAVVKGALDFVGINHYTTYYTRHNNTNIIGTLLNNTLADTGTVSLPFKNGKPIGDRANSIWLYIVPRGMRSLMNYVKERYNSPPVYITENGMDDSNNPFISIKDALKDSKRIKYHNDYLTNLAASIKEDGCDVRGYFAWSLLDNWEWAAGYSSRFGLYFVDYKDNLKRYPKNSVQWFKALLKT
# modifications: Glycine max (L.) Merr. Enrei
# What was measured:
# [1] = Optimum temperature for glucocerebrosidase activity (Examples 5, 12, 20); format: biochemical; conditions: 100 μM cerebroside B, pH 5.5, 15 minutes at each temperature, average of three tests
# Experimental: The glucocerebrosidase activity of the fraction was measured as follows: a predetermined amount of sample was added to a 50 mM acetate buffer solution (pH 5.5) containing 100 μM glucosylceramide (cerebroside B), 0.1% Tween 20, and 0.05% sodium cholate, and incubated at 37° C. for 15 minutes. Subsequently, a 4-fold amount of ethanol was added to the obtained reaction solution, mixed therewith, and then centrifuged at 15000 rpm for 20 minutes. The centrifuged supernatant was subjected to high-performance liquid chromatography analysis. In the high-performance liquid chromatography analysis, the sample was injected to TSKgel ODS-120T column (4.6 mm×30 cm), and a solvent having an ethanol concentration of 83% was flowed at a flow rate of 0.8 mL/min, followed by detection in a UV detector (ultraviolet absorption wavelength: 215 nm) to thereby measure the amount of ceramide newly generated through enzymatic reaction. The amount of ceramide was determined by using, as a standard, ceramide generated from cerebroside B by imiglucerase (manufactured by Sanofi S. A.), human-derived glucocerebrosidase. The molecular weight of the generated ceramide was examined by negative LC-MS (manufactured by Agilent Technologies, Inc.) to thereby confirm that it was ceramide generated from cerebroside B (ESI-MS m/z: 564.5[M-H]^−). Glucocerebrosidase activity per mL of the enzyme solution was calculated when the amount of the enzyme that generated 1 μmol of ceramide for 1 minute in the enzymatic reaction solution was defined as 1 unit (U).
# RGC1 obtained in Example 2 and imiglucerase were each added to a 50 mM acetate buffer solution (pH 5.5) containing 100 μM glucosylceramide (cerebroside B), 0.1% Tween 20, and 0.05% sodium cholate, and incubated at each temperature for 15 minutes. Subsequently, a 4-fold amount of ethanol was added to the obtained reaction solution, mixed therewith, and then centrifuged under a condition of 15000 rpm for 20 minutes. The supernatant was subjected to high-performance liquid chromatography analysis to measure the amount of ceramide generated through enzymatic reaction. The high-performance liquid chromatography analysis was carried out in the same manner as in Example 2. The amount of ceramide and enzymatic activity were also calculated in the same manner as in Example 2. A temperature that attained the highest glucocerebrosidase activity was regarded as the optimum temperature. This test was conducted three times, and an average value was determined therefrom.
# The optimum temperatures for the glucocerebrosidase activity of SGC1 obtained in Example 11 and imiglucerase were confirmed by the same method as in Example 5.
# Enzyme extracts derived from various plants which were obtained in accordance with Example 19, the purified rice-derived RGC1 mentioned above and the purified soybean-derived SGC1 mentioned above were each added to a 50 mM sodium acetate buffer solution (pH 5.5) containing 100 μM glucosylceramide (cerebroside B), 0.1% Tween 20, and 0.05% sodium cholate, and incubated at each temperature for 15 minutes. Subsequently, a 4-fold amount of ethanol was added to the obtained reaction solution, mixed therewith, and then centrifuged at 15000 rpm for 20 minutes. The supernatant was subjected to high-performance liquid chromatography analysis to measure the amount of ceramide generated through enzymatic reaction. The high-performance liquid chromatography analysis was carried out in the same manner as in Example 5. The amount of ceramide and enzymatic activity were also calculated in the same manner as in Example 5. As a result, a temperature that attained the highest glucocerebrosidase activity was regarded as the optimum temperature. This test was conducted three times, and an average value was determined therefrom.
# [2] = Thermostability: relative residual glucocerebrosidase activity after incubation at pH 5 and pH 7 (Examples 6, 13); format: physicochemical; conditions: 37° C.; pH 5 for 6 to 106 hours, pH 7 for 4 to 48 hours; FIGS. 1 and 2
# Experimental: The glucocerebrosidase activity of the fraction was measured as follows: a predetermined amount of sample was added to a 50 mM acetate buffer solution (pH 5.5) containing 100 μM glucosylceramide (cerebroside B), 0.1% Tween 20, and 0.05% sodium cholate, and incubated at 37° C. for 15 minutes. Subsequently, a 4-fold amount of ethanol was added to the obtained reaction solution, mixed therewith, and then centrifuged at 15000 rpm for 20 minutes. The centrifuged supernatant was subjected to high-performance liquid chromatography analysis. […] The amount of ceramide was determined by using, as a standard, ceramide generated from cerebroside B by imiglucerase (manufactured by Sanofi S. A.), human-derived glucocerebrosidase. […] Glucocerebrosidase activity per mL of the enzyme solution was calculated when the amount of the enzyme that generated 1 μmol of ceramide for 1 minute in the enzymatic reaction solution was defined as 1 unit (U).
# RGC1 obtained in Example 2 and imiglucerase were each incubated at pH 5 simulating lysosome (50 mM acetate buffer solution (pH 5.0) containing 0.1% Triton X-100 and 0.05% sodium cholate) at 37° C. for 6 to 106 hours or at pH 7 simulating cytoplasm (50 mM potassium phosphate buffer solution (pH 7.0) containing 0.1% Triton X-100 and 0.05% sodium cholate) at 37° C. for 4 to 48 hours. […] This test was conducted three times, and an average value was determined therefrom. […]
molecule,measurement,setting,value
B1,Optimum temperature (° C.),[1]; Example 5,54.0 °C
same,Optimum temperature (° C.),[1]; Example 20,54.0 °C
same,stability (relative residual activity) compared with imiglucerase,[2],evidently superior in stability to imiglucerase
